Results taken from the DeepSol protein solubility set.

test: soluble on expression in E. coli; label from the status in PepcDB or PDB records

Soluble on expression in E. coli, soluble:
MLRIAVDCMGGDYAPLEIVRGCILAAKELGYKIYLVGDKEQIIPILEKAKEHNNSLLEVVHAPDKVEMHEPPSNVLKKKNSSLYVAGMLVRKGEADGLVSAGNTGAVLAVGKFIVGAEEEVERPSIGVALPNPKGKTVLIDVGANVDCKPKHLVQFAVIGHTYAEEILGIKNPRVGILSIGEEEGKGNELVKETYPLLKATKLNFKGNAEGRDIYAGTFDVIVCDGFVGNVILKASESLGLAVVQMIKEEIKRSILAKLGALLLMPALNRFKKKADFAEYGGIPLLGAKKPVIITHGRANAKAIKNAVRVAGEFLNTDFNKKLVYNLKTLIPEGVKV, MLRISELKLPLGHPPDAMEPAILARLGLSATDLVSFAVARRANDARKKSAIQMVYSVDVVLRDEAAVLRRFEGDHHLRVTPDTGYHFVAKAPEGFDGPRPVVIGAGPCGLFAGLILAQMGLKPIIVDRGKVVRERTKDTWGLWRRSELNPESNVQFGEGGAGTFSDGKLYSQIKDPRFLGRKVLTEFVKAGAPEEILTEAHPHIGTFRLVHMVENMRALIESLGGEYRWQHRVEDFDIEVGEDGVRRVTGLHIAGQGHLPARHVVMALGHSSRDTFQVLYDRGVHIEAKPFSIGVRIEHPQSWIDRARFGDCAGHKDLGAAAYAISHHAKNGRTVYSFCMCPGGTVVAATSEPGRVVTNGMSQYSRNERNANSGFVVDIDPERDYPGHPLAGVDFQRKWESLAFQAGGGTYQAPGQLVGDFLAGRPSTVFGAVTPSYKPGVHLTDLAQCLPDFAIEAMREALPIFGRQIPGYDHPDVVLTGVETRTSSPVRITRGKDFQSLNTAGLYPAGEGAGYAGGILSAAVDGIKVAEAVAKQYVAEGLISACLEHHHHHH, MLSAESLKQIDIELAKYPADQRRSAIMGALRIAQTEKGWLAPETIAFVADYIGISPAQAYEVATFYNMYDLEPVGKYKLTVCTNLPCALRGGMATGEYLKQKLGISYGETTPDGKFTLVEGECMGACGDAPVMLLNNHKMCSFMTEEAIEKKLAELELEHHHHHH, MLSFTLRRAMSFTTRILKVRPESIQFVNDKPQISDNETLINLEIAAKELTTTHNAIGFPTETVYGLAGSALSDESVKSIYKAKNRPADNPLIVHISSIEQLKRKLINYEIPQVYLDLISHFWPGPLTILLPITKDSPISKLVTANQDTFAVRMPNHPVARALIAMSDTPIAAPSANASTRPSPTLAEHVYHDLNGKIPLILDGGACNVGVESTVIDGLVDPPMLLRPGGVSLEDIKRVGGKLWENIVVAKKTAGKLEPVKTPGMKYRHYSPTAKVVLFVNCGDGINAIENYLTNNKVDASTTKIALLKSKHFGEDHPHFIIKRLGTTGNEISHNLFKYLREVDEEDKVELIFVEGIDETNEGLAVMNRLSKAAMEVVNGGEA, MLSIKGKKWRNWTGNVEGTPHYTMYPESIQDVVEVVGLARKKGKKIRVVGSGHSFTPLVQTEEVLVSLDELKGIVNIDAEKMVAEVWAGTKLYDLGKLLEEKGYAQENLGDIDSQSIAGAISTGTHGTGITFGSLSTQVIEITAVLSNGESIVCSETENVEYWRAFQLSLGMLGIIVKIKLKVIPAYSLVYESEKQSLSTVMNKLEEYKKHRHFEFFVFPYSDEVQVKLTNETTNTGSDLKWHKLKVELLENRMFSLLSKGCKWFPSISKGVSRLSAKAVPNTKIIGPSYEVFATSRTVPFYEMEYSIPSKYMRTVVEEISNLIEKKKYKVHFPIECRYVKGDDIWLSPAYGRDSAYIAVHMYKGMKYAAYFGEVEKIFLKYEGRPHWGKMHTLSYEQLQDIYPEFHSFLQARKSLDELGMFFNPYAEKLFIPLFAGQLEHHHHHH, MLSLDSRKIIHHHHHHHHHDIKDGGATTGEWIGQTDHDDSDNHHQHHHHHPWCSDEVLALLRFRSTVENWFPEFTWEHTSRKLAEVGFKRSPQECKEKFEEEERRYFNSNNNNNNNTNDHQHIGNYNNKGNNYRIFSEVEEFYHHGHDNEHVSSEVGDNQNKRTNLVEGKGNVGETVQDLMAEDKLRDQDQGQVEEASMENQRNSIEVGKVGNVEDDAKSSSSSSLMMIMKEKKRKKRKKEKERFGVLKGFCEGLVRNMIAQQEEMHKKLLEDMVKKEEEKIAREEAWKKQEIERVNKEVEIRAQEQAMASDRNTNIIKFISKFTDHDLDVVQNPTSPSQDSSSLALRKTQGRRKFQTSSSLLPQTLTPHNLLTIDKSLEPFSTKTLKPKNQNPKPPKSDDKSDLGKRWPKDEVLALINIRRSISNMNDDDHKDENSLSTSSKAVPLWERISKKMLEIGYKRSAKRCKEKWENINKYFRKTKDVNKKRPLDSRTCPYFHQLTALYSQPPTGTTATTATTATSARDLDTRPEENRVGSQDPDISVPMHVDGDGAGDKSNVQFSGFDLEF, MLTDQEKIDLVNALDFVVIEPHTQSIYVHNDEKTNGVLAKVLHTISVDEYIESFKKGSLIDIFPAAMQEAGAEGFKDGQFVIMPKKFYVDQCYAMSKEIERLTNLNNLHNIKPNTYQGLIHLEHHHHHH, MLTETEGRAAVKLARKTIEIFLSKGKSPRPDASGVELSPVFEEYRGVFVTLTEGGLLRGCIGHPYPDSTLKEAILDSAISAATRDPRFPTVEQDEMKNILVEVTILTQPEKINASPKELPDKVEIGKHGLIVKQGYCQGLLLPQVAPENDMDSIDFLSHTCMKAGLSPDAWVKGAEVYCFEGQIFKEKEPDGEVIEEKFLEHHHHHH, MLTIGGKSFQSRLLLGTGKYPSFDIQKEAVAVSESDILTFAVRRMNIFEASQPNFLEQLDLSKYTLLPNTAGASTAEEAVRIARLAKASGLCDMIKVEVIGCSRSLLPDPVETLKASEQLLEEGFIVLPYTSDDVVLARKLEELGVHAIMPGASPIGSGQGILNPLNLSFIIEQAKVPVIVDAGIGSPKDAAYAMELGADGVLLNTAVSGADDPVKMARAMKLAVEAGRLSYEAGRIPLKQYGTASSPGEGLP, MLVAAILVGCGRDAPPPAAPVALDKTFLADTAAWREARLKELRAPDGWTSLVGLHWLSLKAHYIGSSADSGIKLAVGPPKMGMVSTENNAVWFVPERGAALTLDGKPLTSRIRFQSDRDPQPTLIHFDDGKGVLSLIHRGDRYALRVKHADASSRTHFAGLDYWPLDASWRINARYVPNAVGKTIPIVDIVGISSEQPNAGAIEFERDGKTFRLETIGEPGRAMFVVFADRTSGHGSYPAGRFLDLDVPDASGHVMVDFNRAYNPPCAFTPFATCPLPPPENRIDLAVSAGEKAYKVPHLEHHHHHH

Soluble on expression in E. coli, not soluble:
MLRGIVVVDFSHYLPGPFASWRLAQLGAEVIKIEPPSGDRLRPFAEGRLFAAYNAGKKSIGLDLKTDAGREQARRLAARADVVIESFRPGVMARLGLGYDDMCRMNEQIIYCSISGFGQQSGRSLLGSHDLNYMALSGLLAQLADERGRPVHPKITLADFIGGMAAAERILAALFARERTGKGAHLDVSLVDGLAAMMAGHFAIEHGGGPKTGLSELSGEVVCYQLYETKDGRYMSLAALEPHFWRRFCEAVGHPEWTEAQWAPARSGEAVYDELAALFREKTLDEWSAFAEAVDVCLAPVLETGEAKALFADSRLRHLVRLQPGGVWTAAHGPDGQWGGGEPPKVNEHAHLVKGEE, MLRLIPNKGLKKTINTLTVAEKARINHQDIEELLLRYQRSCPEDAARNITEVTNPNQEKHEGLRVFVIQTWMALMVANSYGLETYQTLKTFMDRQGYKTQPDSTYMATEQKD, MLRVVEVCWRESHMKVLAINSSPRMDKGNTALILNPFLEGMKEAGAEVELFYTKKLKISPCTGEFNCWLKTPGKCYQNDDMNILYPRIDAADVIVFATPVYVDGVTGQMKNFIDRMLPRVEPFVELRDGHCRHPVRGGPKALKFVLVSNCGFWEMDNFDSLLVFMKAFCKNASTEFAGALLRPHGEALSSMLEMGAPIDDVFEAAREVGRQLVKEGKMSQETLDIVSRELLPKEMYIQIANQTFRQCLESLDRLEHHHHHH, MLSAFTPRPLKRLFTANQCWTSFLDAGGLRDIEVEAVTKMLACGTRILGVKEYICDKPECPHVRYVTNSCGSRACPSCGKKATDLWIATQLNRLPDCDWVHLVFTLPDTQWPVFESNRWLLNDVCRLAVENLLYAARKRGQEPGIFCAIHTYGRRLNWHPHVHVSVTCGGLNKHGQWKKLSFLKDAMRSRWMWNMRQRLLKAWSEGLAMPESLSHITTESQRRSLVLKAGGKYWHVYMSKKTAGGRNTARYLGRYLKKPPIAASRLAHYNGGGA, MLSFLQSFFKSLGYEDYFKPIAPSSPRFFTKYCNETQKKITIVIDSNNIIRPFVFDESNEREPLFVAHLGCSECMRWNRMYGENIAENNEPETDSEDETDYESETSDSELGQDSPNPNLSEALNNCIENFDQLVDEVVRHKDFHERSQLLRVLEECLGNMNSFLQNENLTVDDISTGACALLNETAEKLKQMFSSSGISGRKESSEGTNKDLIKFGELEIRGDEEEDDDDESYVEGEEEDSSDEDLDDEDQEGESSIEPRLSETFKKSEARESLSSKEAPVKDLVIYQKFRDEHEDLEESENEPRMSDEAEKLVEDKIIEESDEDSFDIIGRDEELDDDSNGKEEEELELDVTQEDSEDDEQFFSL, MLSIIGQKTLTIMYWTLELASKLEDAPWPATKDELIDYAQRSGAPLEVIENLQEMEDEGEIYESIEDIWPDYPSKEDFFFNEEEY, MLSIISKYLLIASYICSYLEPRYDASIFSRKTRIIQGRAAYGRRKKKEVNPRYLQPSLFAIERLLAIFQAIFPIQGKAESGSLSALREESLMKANIEVFQNLSELHTLKLIATTMNKNIDYLSPKVRWKVNVPWEIIKEISESVHFNISDYFSD, MLSKRIVTALNTAVKVQNAGIATTARGMAGASGSEVSKILEERILGTETGINLEETGKVLSIGDGIARVYGLKNIQAEEMVEFDSGIKGMAMNLDVDNVGVVVFGNDKVIREGDIVKRTGAIVDVPVGDGLLGRVVDALGNPIDGKGPIANARRSRVEVKAPGIIPRLSVREPMVTGVKAVDSLVPIGRGQRELIIGDRQTGKTAIAIDTIINQKRFNDAGDDKKKLFCIYVAVGQKRSTVAQIVKRLTDAGAMDYTIVVSATASDAAPLQFLAPYSGCAMGEHFRDNGKHALIIFDDLSKQAVAYRQMSLLLRRPPGREAYPGDVFYLHSRLLERAAKMNNSLGGGSLTALPVIETQAGDVSAYIPTNVISITDGQIFLETELFYKGVRPAINVGLSVSRVGSAAQTKAMKQVAGSMKLELAQYREVAAFAQFGSDLDASTQQLLNRGVRLTELLKQGQYVPMGIEEQVGVIYAGVKGYLDKVDPSAITKFEKEFLAHLRSSQQALLKTIREEGQISPQTDAQLKDVVVNFLATFKP, MLSQKLFEEISAKISETIAASPAKDIEKNVRAMMASTFSKMDLVTREEFDVQQAVLARTREKLAALESRLARLESQAFPDEAAAKVEEQSELGHS, MLTLSPPPAYLVTAANPAPSVAAAAPRALVFGGSGQIGERLLTRLLGRGWQVTAWSRAPRAARAGLIWRQGDLAAPAVAGESFEVIFSCGPLDHFAHWYETNAVSTPRIVAFGSTSVEVKEHSIDAAERDVAQRLANAEQALFSAAKARGAAATVLRPTLVYGAGRDRTLTQIAGLARRTGAFVLPANATGLRQPVHVDDLASAALAVVTQPATHQRSYAVGGGEVLAYTQMVERVLEALPRPARLYQVPPSLFGLALTTAQRLGRLRSLNTAALQRMRDDLVFDLEPARRDFGYAPRAFRPLPEELGIGELEHHHHHH
